Data on 2 molecules can be found in US20220249679A1 (MITSUBISHI TANABE PHARMA, published 2022).

In assay [1] the target is T1, Cynomolgus monkey CD138 on transfected Expi293 cells (cynomolgus monkey, UniProt P18827 23-310 (human entry)).
T1 construct: also called cyno CD138
T1 chain: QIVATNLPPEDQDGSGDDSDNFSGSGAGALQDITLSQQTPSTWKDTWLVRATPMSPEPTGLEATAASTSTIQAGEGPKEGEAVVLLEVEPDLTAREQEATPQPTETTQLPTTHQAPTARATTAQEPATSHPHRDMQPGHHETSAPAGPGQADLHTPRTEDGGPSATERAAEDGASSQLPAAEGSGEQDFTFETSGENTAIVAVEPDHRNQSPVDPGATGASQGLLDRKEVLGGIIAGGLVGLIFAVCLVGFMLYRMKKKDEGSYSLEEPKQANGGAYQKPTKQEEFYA
Description: FACS titration on Expi293 cells transfected with cynomolgus CD138. From the text: Briefly, a vector directing the cell-surface expression of human CD138 or cyno CD138 was transfected in Expi293 cells.

The target of the next assay is T2, Human CD138-Fc protein (human, UniProt P18827 23-254).
T2 construct: also called hCD138-Fc
T2 sequence: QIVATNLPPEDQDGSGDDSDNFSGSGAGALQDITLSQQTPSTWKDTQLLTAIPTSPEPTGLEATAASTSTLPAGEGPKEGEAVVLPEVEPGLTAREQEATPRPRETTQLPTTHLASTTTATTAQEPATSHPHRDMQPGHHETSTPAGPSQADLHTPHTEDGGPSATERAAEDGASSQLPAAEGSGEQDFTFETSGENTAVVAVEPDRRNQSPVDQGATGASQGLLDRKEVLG
Description: ELISA, plate-coated human CD138-Fc. The protocol:
(§1) A CD138 binding ELISA was performed with 9 representative humanized antibodies to determine binding to portion of the linear CD138 peptide used for immunization (FIG. 7). […] Coated plates were incubated with various dilutions of each of the 9 representative antibodies overnight and binding was detected with a goat anti-human IgG (H+L)-HRP. EC50s were determined using four parameter fit curves (Table 21). An ELISA was also performed to detect binding to plate-coated human CD138-Fc protein (Table 21).

In assay [2] the target is T3, hCD138 peptide AGEGPKEGEAVVLP (human).
T3 construct: Portion of the linear CD138 peptide used for immunization; also the peptide in the crystal structure; also called syndecan-1 peptide
T3 peptide: AGEGPKEGEAVVLP
Description: ELISA, plate-coated hCD138 peptide. The protocol: as §1
In general terms: In an ELISA, binding on a coated surface is turned into a signal by an enzyme label.

The target of assay [3] is T4, Human syndecan-1 (CD138) on the cell surface (human, UniProt P18827 23-310).
T4 construct: Endogenous on H929, KMS-11 and RT112/84 cells or transfected into Expi293 cells; also called human CD138; hCD138
T4 sequence: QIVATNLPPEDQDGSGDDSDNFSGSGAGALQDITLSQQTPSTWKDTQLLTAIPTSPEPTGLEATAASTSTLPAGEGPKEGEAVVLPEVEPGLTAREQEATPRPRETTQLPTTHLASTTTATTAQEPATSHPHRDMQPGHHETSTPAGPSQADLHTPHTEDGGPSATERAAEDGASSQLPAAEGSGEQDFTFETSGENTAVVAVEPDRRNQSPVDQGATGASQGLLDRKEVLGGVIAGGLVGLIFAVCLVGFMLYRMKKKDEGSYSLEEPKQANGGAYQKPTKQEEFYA
In words: FACS on RT112/84 cells (previous experiments); RT112/84 bladder cancer cells (printed RT-122/84), previous experiments.

Assay [4] concerns the target T4, Human syndecan-1 (CD138) on the cell …. In words: FACS on KMS-11 cells (previous experiments); KMS-11 multiple myeloma cells, previous experiments.
The target of assay [5] is T5, Negative control peptide QAAVTSHPHGGMQPGLHETSA (mouse).
T5 construct: also called mouse CD138 peptide
T5 peptide: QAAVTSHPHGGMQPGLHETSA
In words: told in the method of the peptide ELISA. The protocol:
as §1

Another assay addresses T6, Mouse CD138 His (mouse, UniProt P18828 23-255).
T6 construct: also called mCD138
T6 sequence: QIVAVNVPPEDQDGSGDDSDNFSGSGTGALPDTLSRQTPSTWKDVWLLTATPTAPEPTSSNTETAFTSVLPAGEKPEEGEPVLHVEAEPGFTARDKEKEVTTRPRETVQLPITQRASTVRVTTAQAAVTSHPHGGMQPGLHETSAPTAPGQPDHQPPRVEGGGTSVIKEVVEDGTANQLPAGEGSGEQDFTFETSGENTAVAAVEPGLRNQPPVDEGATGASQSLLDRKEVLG
Description: SPR, mouse CD138 His immobilized. The protocol: (§2) Murine IgGs were purified from the hybridoma supernatants and the IgGs were subject to SPR (surface plasmon resonance) for kinetic binding measurements. Human or mouse CD138 His was immobilized on a GLM chip at […] on a BioRad Proteon. […] KDs were measured using bivalent analyte fit.
In general terms: Surface plasmon resonance follows binding to a sensor surface in real time, without labels.

For assay [6], the target named is T7, Human CD138 His (human, UniProt P18827 23-254).
T7 construct: also called hCD138
T7 sequence: T2 sequence
Description: SPR (BioRad Proteon), CD138 His immobilized, bivalent analyte fit. The protocol: as §2

For assay [7], the target named is T7, Human CD138 His. Description: SPR, summary table. The protocol:
as §2

B1: 12P16F6 hIgG1 (antibody, V domains shown)
VH: QVQLQQSGAEVVKPGASVKLSCKASGYTFTSYYLYWVKKGPGQGLDWIGEIYPRSGGTNINEKFLSKATLTADESSSTAYLQLSSLTSEDSAVYYCTRSLLYWGQGTTLIVSS
VL: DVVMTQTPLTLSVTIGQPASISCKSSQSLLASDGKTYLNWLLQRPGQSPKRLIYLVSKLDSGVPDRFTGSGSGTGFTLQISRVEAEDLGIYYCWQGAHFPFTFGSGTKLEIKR
notes: Chimeric antibody: murine variable regions of F12P16F6 with constant regions of human IgG1, kappa isotype; also called chF6; chP16F6
One may read the EC50 as the concentration that produces a half-maximal response. As to B1, the binding result in assay [1] is on record as “binds”. The EC50 with Human CD138-Fc protein is 0.471 nM; in [2], 0.599 nM; in assay [3], about 9 nM; in assay [4], about 3 nM.

B2: F12P16F6 (antibody, V domains shown)
VH: B1 VH
VL: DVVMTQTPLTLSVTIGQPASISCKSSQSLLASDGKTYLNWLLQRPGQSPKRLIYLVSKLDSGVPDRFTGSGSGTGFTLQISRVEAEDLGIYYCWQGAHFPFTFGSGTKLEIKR
notes: Murine hybridoma antibody (IgG); tested as hybridoma supernatant in FACS and as purified murine IgG in SPR
Usually koff stands for a measure of how fast the partners let go of each other. The term kon denotes the rate constant with which the complex forms. Turning to B2, the binding result in assay [5] is “no binding”; with Mouse CD138 His it was “no binding (tested: 167 nM)”. Moreover, the Kd in the assay with Human CD138 His [6] and with Human CD138 His [7] was 21 nM each time. In addition, the off-rate (koff) with Human CD138 His [6] came out at 0.00117 s⁻¹. Moreover, the kon with Human CD138 His [6] stood at 55700 M⁻¹ s⁻¹.
